Test system: MS2 coat protein
Assay: apparent KD of MS2 coat protein; designed switch direction (-1 OFF switch, 1 ON switch): -1; higher = weaker reporter binding
Method in brief: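 For each design, the apparent KD is the median over clusters of curves fitted to normalised cluster fluorescence. Clusters held RNA switches with common flanks, transcribed on Illumina chips by stalled E. coli RNA polymerase. These were titrated with SNAP-549-labelled MS2 coat protein, doubling from 0.7 or 1.5 nM to 3 µM, without input, with 200 uM small-molecule ligand, or with an oligonucleotide input.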

[1] = Eterna round: R95, input ligand: FMN 200 uM
[2] = Eterna round: R95, input ligand: microRNA oligo, concentration not stated
[3] = Eterna round: R95, input ligand: none
[4] = input ligand: microRNA oligo, concentration not stated

| Sequence | apparent KD of MS2 coat protein (input ligand: FMN 200 uM) | apparent KD of MS2 coat protein [2] | apparent KD of MS2 coat protein (input ligand: none) | apparent KD of MS2 coat protein [4] | other results |
| --- | --- | --- | --- | --- | --- |
| UCAUGCUAAGGAUAUGACGUCGGCUACAUGAGGAUCACCCAUGUGGGUUCGUUAUGGCCAUUAGAAGGUAGCGAUU [Eternabot (L2) Solution 95] (Eterna round: R97, puzzle: Exclusion 5) | 17.8 nM |  |  |  |  |
| UCAUGGUAGCAGGAUAUGCUAGAAAUUUUUUAUGCAGAAGGGCUUACAUGAGGAUCACCCAUGUGUUAGGUUUA [JR_E6_Sub071] (puzzle: Exclusion 6) |  | 110 nM |  |  | apparent KD of MS2 coat protein [1]: 22.3 nM; apparent KD of MS2 coat protein [3]: 221 nM |
| UCAUGUAUGUAGGAUAUCGAUGUCCUCGGACAUCGAGAAGGACGUACAUGAGGAUCACCCAUGUAACUUGCAUG [Exclusion 6 - B - 11:c] (puzzle: Exclusion 6) |  | 14 nM |  |  | apparent KD of MS2 coat protein [1]: 23 nM; apparent KD of MS2 coat protein [3]: 23.4 nM |
| UCCAAGCGGAAGCAAUGAAACAUGAGGAUCACCCAUGUCCCGGUGGUCAUUCACCCAAGCUUUUUGUAGUCAACCUU [Eternabot (L1) Solution 42] (Eterna round: R97, puzzle: Sensor, turn-off variant 1) | 249 nM |  | 297 nM |  |  |
| UCCAGUGAAGGAUAUGCACCAGGCAAUUGUAGGGUACUCAUACAUGAGGAUCACCCAUGUAGAAGGUCGCAGGC [Eternabot (L2) Solution 78] (Eterna round: R97, puzzle: Exclusion 2) | 32.4 nM |  |  |  |  |
| UCCGGACAUGAGGAUCACCCAUGUUAGGAUAUCUGAGGUGUGCCAGGAUCCUGGGCCCAGAGAAGGAAUAUGGC [Eternabot (L2) Solution 28] (Eterna round: R97, puzzle: Exclusion 1) | 21.7 nM |  | 19.8 nM |  |  |
| UCCGGGUUUGUAGGAUAUAGUCUGCUUUGCAGACUAGAAGGACAUGAGGAUCACCCAUGUUGUGGAAAUUUGGGAUGUUCCUUU [random2] (Eterna round: R96, puzzle: Exclusion NG 1) | 176 nM |  | 189 nM | 27.4 nM |  |
| UCCUCACAUGAGGAUCACCCAUGUGAGGAUAUCAUGCUUCGUAGUAAACUACGAAGUGUGAGAAGGCGCAUGGC [Omei Ex1 D16] (Eterna round: R97, puzzle: Exclusion 1) | 20.4 nM |  | 16.2 nM |  |  |
| UCCUGACAUGAGGAUCACCCAUGUGAGGAUAUGUGGAUCGAGUCAAAUCUCGUUCCGUGCAGAAGGCACAGGGC [EX1 A.21] (Eterna round: R97, puzzle: Exclusion 1) | 24.9 nM |  | 19 nM |  |  |
| UCCUGGCGAGGAUAUACAAAGAUUUUUUCGUUUUGUCUCGAACAUGAGGAUCACCCAUGUAGAAGGUGCUGCUG [JR_Ex2_Sub014] (Eterna round: R97, puzzle: Exclusion 2) | 50.3 nM |  | 52.2 nM |  |  |
| UCGACGUCGUCAGGAUAUAGUCUUAAUGUCAUGCUUUUGUUCGUACAUGAGGAUCACCCAUGUGGCUAGAAGGGACUAAAGUUU [JR_ExcNG2_Sub016] (Eterna round: R96, puzzle: Exclusion NG 2) | 16.1 nM |  | 26.9 nM | 11.7 nM |  |
| UCGGCGCGAGGAUAUACGGUUGCUUGGUAGGGUCGUGGCGUACAUGAGGAUCACCCAUGUAGAAGGCGCGCCGC [Apr-15 SS2-31] (puzzle: Exclusion 2) |  | 15.9 nM |  |  |  |
| UCGGCGCGAGGAUAUACGUUUGCUUUUUUUCGUUUUUGUGUACAUGAGGAUCACCCAUGUAGAAGGCGCGCCGC [Apr-15 SS2-20] (puzzle: Exclusion 2) |  | 14.6 nM |  |  |  |
| UCGGCGCGAGGAUAUGCGGUUGCUUGGUAGGGUCGGAGCGUACAUGAGGAUCACCCAUGUAGAAGGCGCGCCGC [Apr-15 SS2-33] (puzzle: Exclusion 2) |  | 15.5 nM |  |  |  |
| UCGGCGCUAGGAUAUGCGUCGAAAGACAUGAGGAUCACCCAUGUGGUGCUCCUUAUUAAAGCAGAAGGAGCCCGUA [EX5 A.17] (Eterna round: R97, puzzle: Exclusion 5) | 300 nM |  | 152 nM |  |  |
| UCGUUCCGUGUAGGAUAUUGGCCUCCCUUGGGCCGAGAAGGACAUGAGGAUCACCCAUGUAUGUUAUUAUCGCGCGUGGCGCAU [Design 88] (Eterna round: R96, puzzle: Exclusion NG 1) | 126 nM |  | 18.4 nM | 13.8 nM |  |
| UCGUUUCGUGUAGGAUAUUGGCCUUCUCUGGGUCGAGAAGGACAUGAGGAUCACCCAUGUAUGUUAUUAUCACGCGUGGCGCAU [Design 83] (Eterna round: R96, puzzle: Exclusion NG 1) | 35.3 nM |  | 28.2 nM | 15.8 nM |  |
| UCUCAACAUGAGGAUCACCCAUGUGAGGAUAUGAUGCAGCAGUGGUCUACGCUGUGCAUCAGAAGGCACAUGUG (puzzle: Exclusion 1) |  | 119 nM |  |  |  |

| Sequence | apparent KD of MS2 coat protein (input ligand: FMN 200 uM) | apparent KD of MS2 coat protein [2] | apparent KD of MS2 coat protein (input ligand: none) | apparent KD of MS2 coat protein [4] | other results |
| --- | --- | --- | --- | --- | --- |
| UCUCAGAUAGGAUAUACGUUGGCGGUAGAUCGGGUUUAAAUACAUGAGGAUCACCCAUGUAGAAGGAUCGAGGG [EX2 C.8] (Eterna round: R97, puzzle: Exclusion 2) | 94.4 nM |  | 104 nM |  |  |
| UCUCGACAUGAGGAUCACCCAUGUCAGGAUAUUGUGUUUGAGGUUUUUUACCUUUUGGCAAGAAGGGAUGUGUG [LRO-Excl1-21] (Eterna round: R96, puzzle: Exclusion 1) | 27.5 nM |  | 27.7 nM | 19.7 nM |  |
| UCUCGACAUGAGGAUCACCCAUGUCAGGAUAUUGUGUUUGAGGUUUUUUACCUUUUGGCAAGAAGGGAUGUGUG [LRO-Excl1-21] (puzzle: Exclusion 1) |  | 24.9 nM |  |  |  |
| UCUCGACAUGAGGAUCACCCAUGUCAGGAUAUUGUGUUUUGGGUUUUUUACCUUUUGGCAAGAAGGGAUGUGUG [LRO-Excl1-20] (puzzle: Exclusion 1) |  | 20.4 nM |  |  |  |
| UCUCGCGGGCAAGGAUAUCCCACGCUGUUCUGGCCCGUGUUUGUUACAUGAGGAUCACCCAUGUGGGAGAAGGUGCACCAGGGC [Design 42] (Eterna round: R96, puzzle: Exclusion NG 2) | 218 nM |  | 168 nM | 96.3 nM |  |
| UCUCGCGGGCAAGGAUAUCCUACGUUGUUCUGGCCCGUGCAUGUUACAUGAGGAUCACCCAUGUGGGAGAAGGUGCACCAGGGC [Design 38] (Eterna round: R96, puzzle: Exclusion NG 2) | 56.9 nM |  | 52.5 nM | 30.3 nM |  |
| UCUGGUCAAGGAUAUACAAUCGUGCUUCGGCACGUAAGAUCACAUGAGGAUCACCCAUGUAGAAGGUGACCAGA [E2/1-C3] (Eterna round: R97, puzzle: Exclusion 2) | 449 nM |  | 43.9 nM |  |  |
| UCUGGUCGAGGAUAUACAUGAGGAUCACCCAUGUGGUCACGUGACUUCGGUCACGAAUGUAGAAGGCGACCAGA [E3/3-A6] (Eterna round: R97, puzzle: Exclusion 3) | 26.7 nM |  | 51 nM |  |  |
| UCUUACUGAGGAUAUACAUAGAUUUACAUGAGGAUCACCCAUGUUCCUCUAAGUAUAUAUGUAGAAGGCAGAAGAU [Mat - Exclusion 5 - JL Mod - D44] (Eterna round: R97, puzzle: Exclusion 5) | 329 nM |  | 235 nM |  |  |
| UCUUAUUGCAAGGAUAUGCAAAUUAUUAUUAAAGCAGAAGGUGCAACAUGAGGAUCACCCAUGUUUCCGGGAAA [JR_E6_Sub040] (puzzle: Exclusion 6) |  | 25 nM |  |  |  |
| UCUUAUUGCAAGGAUAUGCUUUUUAUUUCUUUUGCAGAAGGUGCAACAUGAGGAUCACCCAUGUUUCCGGGCAU [JR_E6_Sub035] (Eterna round: R96, puzzle: Exclusion 6) | 34.4 nM |  | 21.5 nM | 16.4 nM |  |
| UCUUAUUGCAAGGAUAUGCUUUUUAUUUCUUUUGCAGAAGGUGCAACAUGAGGAUCACCCAUGUUUCCGGGCAU [JR_E6_Sub035] (puzzle: Exclusion 6) |  | 16.8 nM |  |  |  |
| UGAAACCUAGGAUAUACAUGAGGAUCACCCAUGUAAUGUAGUAUAGUAUAUGUAAGAUGUAGAAGGAGGAAAGU [LRO-Excl05-27-Smart Aleck] (Eterna round: R97, puzzle: Exclusion 3) | 26.3 nM |  | 37.7 nM |  |  |
| UGAAUAAUAGUAAGGAUAUCAGCCGCGAAAGUGGCUGAGAAGGUACAUGAGGAUCACCCAUGUGAAAUAAGAAU [Mod of Zala 19 - Jieux - Brourd's Mod of Exclusion 4] (Eterna round: R97, puzzle: Brourd's mod of Exclusion 4) | 27.1 nM |  | 19.8 nM |  |  |
| UGACUUCAUAUCACAUGAGGAUCACCCAUGUUAUUCAUCUCGUAGGAUAUCGAGGUUUAUUAUUUCGAGAAGGACGUAUUGUUU [JR_ExcNG3_Sub075] (Eterna round: R96, puzzle: Exclusion NG 3) | 68.6 nM |  | 45.5 nM | 44.3 nM |  |
| UGAGGACAUGAGGAUCACCCAUGUAAGGAUAUGCGGAGAGAUUGGAGAGGUCGAGGAGGCAGAAGGUACAGGAC [JR_Exclu1_Sub049] (puzzle: Exclusion 1) |  | 68 nM |  |  |  |
| UGAGUGCUGCGAGGAUAUACAUGAGGAUCACCCAUGUAUACCUGUGAGGCUUUGCCUCACAGGUAGUAGAAGGCGCAGUACUCU [Mat - Exclusion NG 2 - Mod of JL - D44] (Eterna round: R96, puzzle: Exclusion NG 2) | 13.1 nM |  | 12.8 nM | 9.11 nM |  |
| UGAGUGCUGCGAGGAUAUACAUGAGGAUCACCCAUGUUAUCGUGUGAGGCUUUGCCUCACACGAAGUAGAAGGCGCAGUACUCU [JL ENG2 1.11] (Eterna round: R96, puzzle: Exclusion NG 2) | 9.84 nM |  | 14.2 nM | 10.2 nM |  |

Reference: the supplement of paper PMC9170038
